Assay [1] addresses T1, BSA (bovine, UniProt P02769).
T1 construct: also called bovine serum albumin
Briefly: ELISA on coated recombinant proteins, title "Titer of purified mAb"; antibody concentration not given. A general note: An ELISA detects its analyte on a solid surface through an enzyme-linked reagent.

Assay [2] deals with T2, D4-IgA1 (extracellular domain IV of human EGFR fused with human IgA1.Fc) (human).
T2 construct: also called EGFR-IgA1; human EGFR-IgA
T2 chain: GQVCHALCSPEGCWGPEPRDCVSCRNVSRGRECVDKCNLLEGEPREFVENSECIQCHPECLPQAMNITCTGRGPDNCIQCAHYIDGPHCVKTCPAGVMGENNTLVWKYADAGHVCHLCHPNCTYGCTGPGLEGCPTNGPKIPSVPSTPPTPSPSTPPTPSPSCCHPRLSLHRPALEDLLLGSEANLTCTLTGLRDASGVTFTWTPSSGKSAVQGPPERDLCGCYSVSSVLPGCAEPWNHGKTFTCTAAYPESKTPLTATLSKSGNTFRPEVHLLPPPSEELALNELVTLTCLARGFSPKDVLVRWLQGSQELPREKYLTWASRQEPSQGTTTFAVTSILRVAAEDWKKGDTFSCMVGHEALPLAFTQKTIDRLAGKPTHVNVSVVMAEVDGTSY
Briefly: ELISA: EGFR-IgA1 immobilised in microwells, hybridoma culture supernatant, goat anti-mouse IgG.Fc-HRP, OD450.

Assay [3] deals with T3, EGFR domain IV (human, UniProt P00533 505-645).
T3 construct: Immobilised on a CM5 chip for SPR; also called domain IV of EGFR; EGFR D4
In words: SPR, EGFR domain IV immobilised on CM5 chip, Fab injected. On the procedure: EGFR domain IV was immobilized on a CM5 chip at a density of 500 RU through EDC/NHS coupling. […] In another experiment, EGFR domain IV was again immobilized on a CM5 chip at a density of 500 RU through EDC/NHS coupling. […] The samples were injected at concentrations of 300 nM, 100 nM, 30 nM, 10 nM, and 3 nM (FIGS. 15A-15C). The sensorgram curves were subsequently analyzed.
For orientation: In SPR one partner is held on a chip, and binding of the other changes the refractive index at the surface.

The target in assay [4] is T3, EGFR domain IV. Briefly: SPR, EGFR domain IV immobilised on CM5 chip, IgG injected; Table 18 (second kinetic set, apart from Table 17).
Assay [5] deals with T3, EGFR domain IV. Briefly: SPR, EGFR domain IV immobilised on CM5 chip, IgG injected.
Assay [6] deals with T3, EGFR domain IV. The description is as above. This is another data set of the same source.
Assay [7] addresses T4, EGFRviii on U87-EGFRviii cells (human, UniProt P00533).
T4 construct: the U87-EGFRviii cells also carry whatever EGFR the parent U87 line carries; a shift on these cells cannot be split between the two forms
Briefly: flow cytometry on U87-EGFRviii cells, 1, 10, 100 ug/ml, anti-Fc Alexa-647 secondary. The procedure: The cells were detached by trypsin and incubated with 1, 10, or 100 ug/ml EGFR Ab in 2% BSA in PBS at 4° ° C. After 30 minutes, cells were washed with 2% BSA in PBS. […] The cells were analyzed by flow cytometry after washing.
Background: In flow cytometry, cells or beads pass a laser one at a time.

A word on the Kd: it is the concentration at which binding is half-saturated. A lower Kd goes with a tighter complex. One may read the koff as the rate constant with which the complex falls apart. A higher koff goes with a short-lived complex. Usually kon stands for the rate constant with which the complex forms. High values mean faster complex formation, low ones slower complex formation.

T1 sequence (P02769 25-607 limits assumed): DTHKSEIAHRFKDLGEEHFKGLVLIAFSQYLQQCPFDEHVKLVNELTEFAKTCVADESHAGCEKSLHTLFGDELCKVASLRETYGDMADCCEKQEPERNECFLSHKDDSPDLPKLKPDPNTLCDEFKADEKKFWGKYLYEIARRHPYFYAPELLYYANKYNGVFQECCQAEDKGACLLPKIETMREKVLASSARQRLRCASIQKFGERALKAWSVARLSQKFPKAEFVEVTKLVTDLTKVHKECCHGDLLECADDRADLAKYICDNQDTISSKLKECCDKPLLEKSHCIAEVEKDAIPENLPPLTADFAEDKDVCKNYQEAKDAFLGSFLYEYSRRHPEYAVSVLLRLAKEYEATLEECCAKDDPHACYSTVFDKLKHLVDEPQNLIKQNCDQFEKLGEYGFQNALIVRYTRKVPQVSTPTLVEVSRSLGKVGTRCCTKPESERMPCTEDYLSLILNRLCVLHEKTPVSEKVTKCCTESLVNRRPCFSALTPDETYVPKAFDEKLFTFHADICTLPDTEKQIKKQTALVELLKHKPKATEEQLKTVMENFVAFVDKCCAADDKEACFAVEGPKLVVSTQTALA

B1: 5C8 hybridoma clone antibody (mouse, culture supernatant) (antibody, V domains shown)
VH: EVQLQQSGPELVKTGASVKISCKASGYSFTGYYMHWVKQSHGKSLEWIGYINCYNGAINYNQKFKGKATFTVDTSSSTVYMQFNSLTSEDSAVYYCVRAGIHYDYDEAWFAYWGQGTLVTVSA
VL: QAVVTQESALTTSPGETVTLTCRSSTGPVIIRNYANWVQEKPDHLFTGLIGGTNNRAPGVPARFSGSLIGDKAALTITGAQTEDEAIYFCALWYNNHWVFGGGTKLTVL
notes: Mouse antibody from hybridoma supernatant; also called 5C8 clone; Clone 5C8
As for B1, the binding result is “no binding” in assay [1] and “binds” in assay [2].

B2: EGFRD4-5C8 Fab (Fab, V domains shown)
VH: EVQLQQSGPELVKTGASVKISCKASGYSFTGYYMHWVKQSHGKSLEWIGYINCYNGAINYNQKFKGKATFTVDTSSSTVYMQFNSLTSEDSAVYYCVRAGIHYDYDEAWFAYWGQGTLVTVSA
VL: QAVVTQESALTTSPGETVTLTCRSSTGPVIIRNYANWVQEKPDHLFTGLIGGTNNRAPGVPARFSGSLIGDKAALTITGAQTEDEAIYFCALWYNNHWVFGGGTKLTVL
notes: Fab of clone 5C8
Regarding B2, in assay [3], binding was put at a Kd of 170 nM, the koff was found to be 0.0305 s⁻¹ and the kon turned out to be 179000 M⁻¹ s⁻¹.

B3: chimeric anti-domain IV EGFR antibody clone 5C8 (EGFRD4-5C8) (antibody, V domains shown)
VH: EVQLQQSGPELVKTGASVKISCKASGYSFTGYYMHWVKQSHGKSLEWIGYINCYNGAINYNQKFKGKATFTVDTSSSTVYMQFNSLTSEDSAVYYCVRAGIHYDYDEAWFAYWGQGTLVTVSA
VL: QAVVTQESALTTSPGETVTLTCRSSTGPVIIRNYANWVQEKPDHLFTGLIGGTNNRAPGVPARFSGSLIGDKAALTITGAQTEDEAIYFCALWYNNHWVFGGGTKLTVL
notes: also called 5C8 IgG; 5C8 mAb
Regarding B3, binding in assay [4] was put at a Kd of 0.214 nM. In assay [5], this molecule came in with a koff of 0.00013 s⁻¹ and a kon of 604000 M⁻¹ s⁻¹. In assay [6], this molecule showed a Kd of 0.487 nM, a koff of 0.000249 s⁻¹ and a kon of 512000 M⁻¹ s⁻¹.

B4: EGFRD4-34Ab (antibody, V domains shown)
VH: QIQLVQSGPELKKPGETVKISCKASGYTFTNYGMNWVKQAPGKGLKWMGWINTYTGDPTYADDFKGRFAFSLETSASTAYLQINNLKNEDMATYFCARRISTMITTWFAYWGQGTLVTVSA
VL: DIQMTQSPASLSASVGETVTITCRASENIYSYLAWFQQRQGKSPQLLVYNAKTLTEGVPSRFSGSGSGTQFSLKINSLQPEDFGSYYCQHYQVTPYTFGGGTKLEIK
notes: also called Clone # 34
With B4, in assay [7], the binding result is “binds”.

The values are drawn from patent US20240228629A1 (CITY OF HOPE, published 2024).
